Among the data in PMC10899256 (2024) are Ka values, retold here.

B1: LKB1 LFa peptide WT [human] / purified TBC1D23 PH domain (545–684) [human] (parent complex)
chain 1: GADEDEDLFDIEDDIIYTQD
chain 2: YDTDEIDSSSMSDDDRKEVVNIQTWINKPDVKHHFPCKEVKESGHMFPSHLLVTATHMYCLREIVSRKGLAYIQSRQALNSVVKITSKKKHPELITFKYGNSSASGIEILAIERYLIPNAGDATKAIKQQIMKVLDALES

This assay covers variants of B1. The assay is described as follows: ITC; read off a plot.
On to chain 1 F9L, for which the Ka is ~4.6 10^4 M^-1.
For chain 1 F9A, the Ka was ~5 10^4 M^-1.
